This passage reports Kd results from US20200207857A1.

In general, Kd refers to the concentration at which binding is half-saturated.

First the molecules themselves.
B1: h5C9oar (antibody, V domains shown)
VH: EVQLVESGGGLVQPGGSLRLSCAVSGYTFSMNWVRQAPGKGLEWVAWINMYTGEPNYADDFKGRFTISRDDSKNTLYLQMNSLRAEDTAVYYCARLYNGNSLDYWGQGTLVTVSS
VL: DIQMTQSPSSLSASVGDRVTITCKSSQSLLNWGNQKSYLTWYQQKPGKAPKLLIYWASTLWSGVPSRFSGSGSGTDYTLTISSLQPEDFATYYCQNAYSFPFTFGQGTKVEIK
B2: 8C12 (antibody, V domains shown)
VH: EVQLQQSGGGLVQPGGSRKLSCAASGFTFSDYGMAWVRQAPGKGPEWVAFISNLAYSIYSTDTVTGRFTISRENAKNTLYLEMSSLRSDDTAMYYCARGSYYGNSFDYWGQGTTLTVSS
VL: DIVLTQSPAIMSASPGEKVTMTCSASSSVSYMYWYQQKPGSSPKPWIYDTSNLASGFPARFSGSGSGTSYSLIISNMEAEDAATYYCHQRSSYPTFGTGTKLELK
B3: 14D7 (antibody, V domains shown)
VH: VQLQQSGGGLVQPGGSRKLSCAASGFTFSSFGMHWVRQAPEKGLEWVGYINSGSSTIYYADTVKGRFTISRDNPRNTLFLQMTSLRSEDTAMYYCASGAYYGNAMDYWGQGTSVTVSS
VL: MTQDELSLTVTAGEKVTMSCKSSQSLLNSGNQRNYLTWYQQKPGQPPKLLIYWASTRESGVPNRFTGSGSGTDFTLTISSVQAVDLAVYYCQNNYFYPLTFGSGTKLELK
B4: 5G7 (antibody, V domains shown)
VH: KVQLQESGPELVRPGTSVKVSCKASKYAFTNYLIEWIKQRPGQGLEWIGMINPGSDGSHYNEKFKGKATLTADKSSSTAYMQLSSLTSDDSAVYFCARVGYGNSFAYWGQGTLVTVSA
VL: MTQDELSLTVTAGEKVTLSCKSSQSLLNSGNQRNYLTWYQQKKGQPPKLLIYWASTRESGVPDRLTGSGSGTDFTLTISGVQAEDLAVYYCQNAYYYPFTFGSGTKLEIK
B5: 1D5 (antibody, V domains shown)
VH: VQLQESGAELVRPGTSVKVSCKASRYAFTNYLIEWVKQRPGQGLEWIGMINPGSGGTHYNEKFKVKATLTADKSSSTAYMQLNSLTSDDSAVYFCARGGFGNSFAYWGQGTLVTVSA
VL: DIMMTQTPLSLTVTAGEKVTMSCKSSQSLLNGGNLKNYLTWYQQKPGQPPKLLTYWASTRESGVPARFTGSGSGTDFTLTISSVQAEDLAVYYCQNGYFYPYTFGGGTKLEIK
B6: 7A10 (antibody, V domains shown)
VH: VQLQESGAELVRPGTSVKVSCKASGYAFTNYLIEWVKQRPGQGLEWIGMINPGSGGTNYNEKFKGKATLTADKSSSTAYMQLSSLTSDDSAVYFCARGGFGNSFAYWGQGTLVTVSA
VL: DIMMTQSPLSLTVTAGEKVTMSCKSSQSLLNSGNLKNYLTWYQQKPGQPPKLLTYWASTRDSGVPARFTGSGSGTDFTLTISSVQAEDLAVYYCQNDYFYPYTFGGGTKLEIK
B7: 5H7 (antibody, V domains shown)
VH: EVKLQESGPSLVKPFQSLSLTCTVTDYSITRGYNWHWIRQFPGNKLEWMGYIHYSGSTNYNPSLKSRISITRDTSKNQFFLQLNSVTTEDTATYYCARDYYGNSFAYWGQGTLVTVFC
VL: DIVMTQDELSLTVTAREKVTMSCKSSQTLFNSGNQKNYLTWYQQKPGQPPKLLIYWASTRESGVPDRFTGSGSGTDFTLTISSVQAEDLAVYYCQNDYIFPYTFGGGTKLEIK
B8: 4G3 (antibody, V domains shown)
VH: KVQLQQSGGGLVQPGGSRKLSCAASGFTFSSFGMHWVRQAPEKGLEWVGYINSGSSTIYYADTVKGRFTISRDNPRNTLFLQMTSLRSEDTAMYYCASGAYYGNAMDYWGQGTSVTVSS
VL: DIVMTQDELSLTVTVGDKVTMNCRSSQSLLNSGNQRNYLTWYQQKPGQPPKLLIYWASTRESGVPDRFTGSGSGTDFTLTISSVQAEDLAVYYCQNVYFYPLTFGTGTKLELK
B9: 14B7 (antibody, V domains shown)
VH: KVKLQESGPELVKPGASVKIPCKASGYTFTDYKMDWVKQSHGKSLEWIGDINPNNGGTIYNQKFKGKATLTVDRSSSTAYMELRSLTSEDTAVYYCARSYYGNSLAYWGQGTLVTVSA
VL: DIVMTQDELSLTVTAGEKVTMSCKSSQSLLNSGNQKNYLTWYQQKPGLPPKLLIYWASTRESGVPDRFTGSGSGTDFTLTISSVQAEDLAVYYCQNNYIYPLTFGAGTKLELK
B10: h5C9oa (antibody, V domains shown)
VH: EVQLVESGGGLVQPGGSLRLSCAVSGYTFSMNWVRQAPGKGLEWVAWINMYTGEPTYADDFKGRFTISRDDSKNTLYLQMNSLRAEDTAVYYCARLYNGNSLDYWGQGTLVTVSS
VL: DIQMTQSPSSLSASVGDRVTITCKSSQSLLNSGNQKSYLTWYQQKPGKAPKLLIYWASTLESGVPSRFSGSGSGTDYTLTISSLQPEDFATYYCQNAYAFPFTFGQGTKVEIK
B11: h5C9od (antibody, V domains shown)
VH: EVQLVESGGGLVQPGGSLRLSCAVSGYTFSMNWVRQAPGKGLEWVAWINMYTGEPTYADDFKGRFTISRDDSKNTLYLQMNSLRAEDTAVYYCARLYNGNSLDYWGQGTLVTVSS
VL: DIQMTQSPSSLSASVGDRVTITCKSSQSLLNSGNQKSYLTWYQQKPGKAPKLLIYWASTLESGVPSRFSGSGSGTDYTLTISSLQPEDFATYYCQNAYWFPFTFGQGTKVEIK
B12: h5C9oe (antibody, V domains shown)
VH: EVQLVESGGGLVQPGGSLRLSCAVSGYTFSMNWVRQAPGKGLEWVAWINMYTGEPTYADDFKGRFTISRDDSKNTLYLQMNSLRAEDTAVYYCARLYNGNSLDYWGQGTLVTVSS
VL: DIQMTQSPSSLSASVGDRVTITCKSSQSLLNSGNQKSYLTWYQQKPGKAPKLLIYWASTLESGVPSRFSGSGSGTDYTLTISSLQPEDFATYYCQNAYRFPFTFGQGTKVEIK
B13: h5C9of (antibody, V domains shown)
VH: EVQLVESGGGLVQPGGSLRLSCAVSGYTFSMNWVRQAPGKGLEWVAWINMYTGEPTYADDFKGRFTISRDDSKNTLYLQMNSLRAEDTAVYYCARLYNGNSLDYWGQGTLVTVSS
VL: DIQMTQSPSSLSASVGDRVTITCKSSQSLLNSGNQKSYLTWYQQKPGKAPKLLIYWASTLESGVPSRFSGSGSGTDYTLTISSLQPEDFATYYCQNSYSFPFTFGQGTKVEIK
B14: h5C9og (antibody, V domains shown)
VH: EVQLVESGGGLVQPGGSLRLSCAVSGYTFSMNWVRQAPGKGLEWVAWINMYTGEPTYADDFKGRFTISRDDSKNTLYLQMNSLRAEDTAVYYCARLYRGNSLDYWGQGTLVTVSS
VL: DIQMTQSPSSLSASVGDRVTITCKSSQSLLNSGNQKSYLTWYQQKPGKAPKLLIYWASTLESGVPSRFSGSGSGTDYTLTISSLQPEDFATYYCQNSYSFPFTFGQGTKVEIK
B15: h5C9oc (antibody, V domains shown)
VH: EVQLVESGGGLVQPGGSLRLSCAVSGYTFSMNWVRQAPGKGLEWVAWINMYTGEPTYADDFKGRFTISRDDSKNTLYLQMNSLRAEDTAVYYCARLYNGNSLDYWGQGTLVTVSS
VL: DIQMTQSPSSLSASVGDRVTITCKSSQSLLNSGNQKSYLTWYQQKPGKAPKLLIYWASTLESGVPSRFSGSGSGTDYTLTISSLQPEDFATYYCQNGYSFPFTFGQGTKVEIK
B16: h5C9oaf (antibody, V domains shown)
VH: EVQLVESGGGLVQPGGSLRLSCAVSGYTFSMNWVRQAPGKGLEWVAWINMYTGEPTYADDFKGRFTISRDDSKNTLYLQMNSLRAEDTAVYYCARLFNGNSLDYWGQGTLVTVSS
VL: DIQMTQSPSSLSASVGDRVTITCKSSQSLLNSGNQKSYLTWYQQKPGKAPKLLIYWASTLESGVPSRFSGSGSGTDYTLTISSLQPEDFATYYCQNAYYFPFTFGQGTKVEIKR
B17: h5C9oab (antibody, V domains shown)
VH: EVQLVESGGGLVQPGGSLRLSCAVSGYTFSMNWVRQAPGKGLEWVAWINMYTGEPTYADDFKGRFTISRDDSKNTLYLQMNSLRAEDTAVYYCARLYNGNSLDYWGQGTLVTVSS
VL: DIQMTQSPSSLSASVGDRVTITCKSSQSLLNSGNQKSYLTWYQQKPGKAPKLLIYWASTLESGVPSRFSGSGSGTDYTLTISSLQPEDFATYYCQNAYYFPFTFGQGTKVEIK
B18: h5C9oaj (antibody, human IgG1, kappa, V domains shown)
VH: EVQLVESGGGLVQPGGSLRLSCAVSGYTFSMNWVRQAPGKGLEWVAWINMYTGEPTYADDFKGRFTISRDDSKNTLYLQMNSLRAEDTAVYYCARLARGNSIDYWGQGTLVTVSS
VL: DIQMTQSPSSLSASVGDRVTITCKSSQSLLNSGNQKSYLTWYQQKPGKAPKLLIYWASTLESGVPSRFSGSGSGTDYTLTISSLQPEDFATYYCQNAYYFPFTFGQGTKVEIKR
B19: h5C9oad (antibody, V domains shown)
VH: EVQLVESGGGLVQPGGSLRLSCAVSGYTFSMNWVRQAPGKGLEWVAWINMYTGEPTYADDFKGRFTISRDDSKNTLYLQMNSLRAEDTAVYYCARLYRGNSLDYWGQGTLVTVSS
VL: DIQMTQSPSSLSASVGDRVTITCKSSQSLLNSGNQKSYLTWYQQKPGKAPKLLIYWASTLESGVPSRFSGSGSGTDYTLTISSLQPEDFATYYCQNAYYFPFTFGQGTKVEIK
B20: h5C9oak (antibody, human IgG1, kappa, V domains shown)
VH: EVQLVESGGGLVQPGGSLRLSCAVSGYTFSMNWVRQAPGKGLEWVAWINMYTGEPTYADDFKGRFTISRDDSKNTLYLQMNSLRAEDTAVYYCARSSRGNGFDYWGQGTLVTVSS
VL: DIQMTQSPSSLSASVGDRVTITCKSSQSLLNSGNQKSYLTWYQQKPGKAPKLLIYWASTLESGVPSRFSGSGSGTDYTLTISSLQPEDFATYYCQNAYYFPFTFGQGTKVEIKR

Chain of Recombinant protein Claudin 18.2 (chain, as listed by the source limits assumed, form in doubt): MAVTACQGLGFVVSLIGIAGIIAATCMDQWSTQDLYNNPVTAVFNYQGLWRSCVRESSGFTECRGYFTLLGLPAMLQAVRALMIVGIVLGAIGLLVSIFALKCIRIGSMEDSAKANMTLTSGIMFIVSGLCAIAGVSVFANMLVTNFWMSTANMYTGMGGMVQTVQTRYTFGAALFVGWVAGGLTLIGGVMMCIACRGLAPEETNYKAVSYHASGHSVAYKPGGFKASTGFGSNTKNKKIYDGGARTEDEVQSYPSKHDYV

The first assay has as its target Recombinant protein Claudin 18.2. Description: ELISA on plate-coated recombinant Claudin 18.2, OD450; Kd table under the graph, no unit in the table, unit from the x axis log[antibody] nM.
For the molecule B1, the Kd turned out to be 0.149 nM.

Another assay shares this target. Description: ELISA on plate-coated recombinant Claudin 18.2, OD370; Kd table under the graph, no unit in the table, unit from the x axis log[antibody] nM. (In general: An ELISA detects its analyte on a solid surface through an enzyme-linked reagent.)
As to B2, the dissociation constant Kd was found to be 0.0782 nM.
Still for that read-out and setting: as for B3, the figure is 0.1 nM; as for B4, 0.293 nM.
Take B5: the Kd came out at 0.055 nM.
On the same count and under the same terms, to B6 belongs 0.103 nM; to B7, 0.136 nM; to B8, 0.343 nM.
On the same count and under the same terms, to B9 belongs 0.2 nM.

The next assay has the same target. Nature of the assay: ELISA on plate-coated recombinant Claudin 18.2, OD450; Kd table under the graph, no unit in the table, unit from the x axis log[antibody] nM. The source holds these as a separate data set.
As for B10, the Kd came out at 0.0894 nM.
The same measure, in the same setting: as for B11, the figure is 0.0876 nM.
On the same count and under the same terms, as for B12, the figure is 0.0878 nM; as for B13, 0.103 nM.
Turning to B14, the Kd amounted to 0.0884 nM.
Same read-out and setting: to B15 belongs 0.0848 nM.

Another assay has the same target. Description: ELISA-based assay on Claudin 18.2, y axis RLU; Kd table under the graph, no unit in the table, unit from the x axis log[antibody] nM.
As for B16, the Kd is 0.162 nM.
The same measure, in the same setting: as for B17, the figure is 0.164 nM; as for B18, 0.173 nM; as for B19, 0.175 nM.
Still for that read-out and setting: as for B20, the figure is 0.161 nM.
